# Results taken from PMC11554226 (2024).
# Positions count from the first letter of the chain named. Names and notes keep the numbering of the source.
# B1: Tnb04-1 R50Q (nanobody-Fc) (Fc fusion)
# chain: EVQLVESGGGLVQPGGSLRLSCAASGSISTLNVMGWYRQAPGKQRELVAQITLDGRPEYADSVKGRFTITKDGAQSTLYLQMNNLKPEDTAVYFCKLENGGFFYYWGQGTQVTVSS
# B2: Tnb04-1 R56S (nanobody-Fc) (Fc fusion)
# chain: B1 chain with Q50R, R56S
# Biological target: receptor-binding domain (RBD) of SARS-CoV-2 prototype strain (SARS-CoV-2 prototype strain, UniProt P0DTC2)
# Test: SPR
row,Binder,Kd [nM]
1,B1,0.471
2,B2,0.535
